Patent publication US20050053985A1 (PTC THERAPEUTICS, published 2005)

B1: His-Flag-HsSen2 (other, not shown: small tags and cut ends)
chain: MAEAVFHAPKRKRRVYETYESPLPIPFGQDHGPLKEFKIFRAEMINNNVIVRNAEDIEQLYGKGYFGKGILSRSRPSFTISDPKLVAKWKDMKTNMPIITSKRYQHSVEWAAELMRRQGQDESTVRRILKDYTKPLEHPPVKRNEEAQVHDKLNSGMVSNMEGTAGGERPSVVNGDSGKSGGVGDPREPLGCLQEGSGCHPTTESFEKSVREDASPLPHVCCCKQDALILQRGLHHEDGSQHIGLLHPGDRGPDHEYVLVEEAECAMSEREAAPNEELVQRNRLICRRNPYRIFEYLQLSLEEAFFLVYALGCLSIYYEKEPLTIVKLWKAFTVVQPTFRTTYMAYHYFRSKGWVPKVGLKYGTDLLLYRKGPPFYHASYSVIIELVDDHFEGSLRRPLSWKSLAALSRVSVNVSKELMLCYLIKPSTMTDKEMESPECMKRIKVQEVILSRWVSSRERSDQDDL
notes: Bait expressed stably in 293 cells and purified with its partners over anti-Flag and Ni beads; also called His-Flag-Sen2; His-Flag-Sen2WT
B2: His-Flag-HsSen2deltaEx8 (other, not shown: small tags and cut ends)
chain: MAEAVFHAPKRKRRVYETYESPLPIPFGQDHGPLKEFKIFRAEMINNNVIVRNAEDIEQLYGKGYFGKGILSRSRPSFTISDPKLVAKWKDMKTNMPIITSKRYQHSVEWAAELMRRQGQDESTVRRILKDYTKPLEHPPVKRNEEAQVHDKLNSGMVSNMEGTAGGERPSVVNGDSGKSGGVGDPREPLGCLQEGSGCHPTTESFEKSVREDASPLPHVCCCKQDALILQRGLHHEDGSQHIGLLHPGDRGPDHEYVLVEEAECAMSEREAAPNEELVQRNRLICRRNPYRIFEYLQLSLEEEPLTIVKLWKAFTVVQPTFRTTYMAYHYFRSKGWVPKVGLKYGTDLLLYRKGPPFYHASYSVIIELVDDHFEGSLRRPLSWKSLAALSRVSVNVSKELMLCYLIKPSTMTDKEMESPECMKRIKVQEVILSRWVSSRERSDQDDL
notes: also called His-Flag-Sen2ΔEx8; His-Flag-Sen2deltaEx8
B3: His-Flag-HsSen34 (other, not shown: small tags and cut ends)
chain: MLVVEVANGRSLVWGAEAVQALRERLGVGGRTVGALPRGPRQNSRLGLPLLLMPEEARLLAEIGAVTLVSAPRPDSRHHSLALTSFKRQQEESFQEQSALAAEARETRRQELLEKITEGQAAKKQKLEQASGASSSQEAGSSQAAKEDETSDGQASGEQEEAGPSSSQAGPSNGVAPLPRSALLVQLATARPRPVKARPLDWRVQSKDWPHAGRPAHELRYSIYRDLWERGFFLSAAGKFGGDFLVYPGDPLRFHAHYIAQCWAPEDTIPLQDLVAAGRLGTSVRKTLLLCSPQPDGKVVYTSLQWASLQ
notes: Bait expressed stably in 293 cells; also called His-Flag-Sen34; His-Flag-34
B4: His-Flag-HsSen15 (other)
chain: MEERGDSEPTPGCSGLGPGGVRGFGDGGGAPSWAPEDAWMGTHPKYLEMMELDIGDATQVYVAFLVYLDLMESKSWHEVNCVGLPELQLICLVGTEIEGEGLQTVVPTPITASLSHNRIREILKASRKLQGDPDLPMSFTLAIVESDSTIVYYKLTDGFMLPDPQNISLRR
notes: Bait expressed stably in 293 cells; also called His-Flag-Sen15; tagged HsSen15; not shown: His and Flag tag from the His-Flag-pcDNA3.1/Hygro vector

Molecular target: SmB/B′ proteins (human, UniProt P14678 1-240)
Assay: co-purification with the His-Flag-tagged bait from stable 293 cells (anti-Flag beads, then Ni beads); SDS-PAGE, Western blot with Y12 antibody (SmB/B′)
Description: Proteins co-purified with His-Flag-HsSen2, His-Flag-HsSen2deltaEx8, His-Flag-HsSen34, His-Flag-HsSen15 and His-Flag-HsClp1 were analyzed by SDS-PAGE followed by Western blotting with antibodies against Symplekin, CstF64. Y12 antibody that recognizes SmB/B′ proteins was used a negative control.
Complexes purified using the different epitope-tagged subunits of the endonuclease complexes were analyzed by Western blotting using antibodies specific for Symplekin and CstF64, components of the human pre-mRNA 3′-end processing complex. Y12 antibody (known to recognize pre-mRNA splicing snRNP […] proteins) was used as a negative control. […] Similar amounts of 3′-end complexes were purified from all His-Flag-tagged tRNA endonuclease subunits. Since the purification conditions were very stringent and utilized two affinity chromatography steps (see experimental procedures), the interaction between tRNA splicing endonuclease and pre-mRNA 3′-end processing factors is quite robust. Immunoprecipitation under standard salt conditions to more accurately determine the amount of 3′-end factors associated with the tRNA endonuclease was also performed. It was shown that as much as 1% of the 3′-end processing factors are associated with the tRNA endonuclease. […] Furthermore, His-Flag-HsSen2deltaEx8 and His-Flag-HsClp1 were able to associate with a larger proportion of the 3′-end formation complexes (FIG. 29, compare lane 8 and 11 to 7, 9, 10). [0764] 5.2.2.7 Depletion of SEN2 Causes Defects in tRNA Splicing and Pre-mRNA 3′ end Formation

Binding result, no binding:
B1
B2
B3
B4
